Results published in patent publication US20260098090A1.

Target: T1, IL-2Rbg on mouse splenocytes (NK cells, CD8+ T cells, Treg cells) (mouse) (UniProt P16297)
T1 sequence (looked up) 1: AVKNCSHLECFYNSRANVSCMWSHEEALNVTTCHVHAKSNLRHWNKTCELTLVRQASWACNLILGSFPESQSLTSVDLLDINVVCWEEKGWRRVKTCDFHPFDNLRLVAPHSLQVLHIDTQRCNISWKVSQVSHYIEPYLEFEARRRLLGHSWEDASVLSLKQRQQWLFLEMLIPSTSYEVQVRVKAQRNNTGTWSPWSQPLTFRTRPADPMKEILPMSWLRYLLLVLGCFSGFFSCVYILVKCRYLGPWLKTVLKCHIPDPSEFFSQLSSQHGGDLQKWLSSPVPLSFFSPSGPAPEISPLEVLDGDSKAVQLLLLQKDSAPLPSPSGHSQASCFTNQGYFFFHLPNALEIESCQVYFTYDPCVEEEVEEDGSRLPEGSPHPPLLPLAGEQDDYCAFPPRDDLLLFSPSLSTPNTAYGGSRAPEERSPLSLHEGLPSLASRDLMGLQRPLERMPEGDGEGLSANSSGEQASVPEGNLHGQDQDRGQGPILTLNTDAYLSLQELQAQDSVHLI
T1 sequence (looked up) 2: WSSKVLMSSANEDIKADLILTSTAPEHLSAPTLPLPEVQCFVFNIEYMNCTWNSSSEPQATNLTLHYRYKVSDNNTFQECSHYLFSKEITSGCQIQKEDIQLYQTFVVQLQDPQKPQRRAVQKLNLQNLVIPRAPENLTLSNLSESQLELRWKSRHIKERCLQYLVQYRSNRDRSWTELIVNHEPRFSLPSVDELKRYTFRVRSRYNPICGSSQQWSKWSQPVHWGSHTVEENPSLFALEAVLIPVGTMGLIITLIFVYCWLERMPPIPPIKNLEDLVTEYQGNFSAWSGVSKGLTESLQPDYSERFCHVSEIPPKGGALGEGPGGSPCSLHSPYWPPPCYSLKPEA
Experiment: cell-based or functional assay

- pSTAT5 staining of murine splenocytes, EC50 on CD8+ T cells: 26 nM
- pSTAT5 staining of murine splenocytes, EC50 on NK cells: 8.6 nM
- pSTAT5 staining of murine splenocytes, EC50 on Treg cells: 42.5 nM
B1: CTRL-mIL2v2 (protein, part only; not given: control antibody chains and linker, not shown: small tags and cut ends)
heavy, part: APTSSSTSSSTAEAQQQQQQQQQQQQHLEQLLMDLQELLSRMENYRNLKLPEMLTAKFALPKQATELKDLQCLEDELGPLRHVLDLTQSKSFQLEDAENFISNIRVTVVKLKGSDNTFECQFDDESATVVDFLRRWIAFAQSIISTSPQ
